± gives the standard error. Fewer inactive variants are shown than the library holds.
B1: glmS ribozyme (parent)
chain: AUAAAAGCGCCAGAACUACAGAAAUGUAGUUGACGAGGAGGAGGUUUAUCGAAUUUUCGGCGGAUGCCUCCAAA

Key:
Conditions in all cases: with glucosamine-6-phosphate
glucosamine-6-phosphate [1] = variants of: B1; assay: self-cleavage kobs at 640 uM GlcN6P; higher = faster cleavage; RNA array
In short: (§1)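 Using a hybridised Cy3 probe at 37 °C, barcoded ribozyme variants transcribed in situ by E. coli RNA polymerase on sequenced MiSeq chips were monitored across tiles imaged over ~14 h. The flow contained glucosamine-6-phosphate from 40 μM to 10 mM in HEPES/KCl/Mg(OAc)2 buffer. Signals were normalised to baseline and to non-cleaving reference variants before per-tile medians were fit to one- or two-exponential decays to yield kobs. Weighted Michaelis–Menten fits across concentrations gave kcat and KM.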

glucosamine-6-phosphate [2] = variants of: B1; assay: self-cleavage kobs at 2500 uM GlcN6P; higher = faster cleavage; RNA array
In short: as §1

glucosamine-6-phosphate [3] = variants of: B1; assay: self-cleavage kobs at 10000 uM GlcN6P; higher = faster cleavage; RNA array
In short: as §1

Variant | self-cleavage kobs at 640 uM GlcN6P (glucosamine-6-phosphate [1]) [s⁻¹] | self-cleavage kobs at 2500 uM GlcN6P (glucosamine-6-phosphate [2]) [s⁻¹] | self-cleavage kobs at 10000 uM GlcN6P (glucosamine-6-phosphate [3]) [s⁻¹]
G35U A48C C68A | < 1e-05 |  | 
G37A A64G C71U | 3.85e-05 ± 1.7e-05 |  | 
A39C A52C C71A | < 1e-05 | < 1e-05 | 
G43C U46A A48C | < 1e-05 | < 1e-05 | < 1e-05
A33U G44U U46G | < 1e-05 | < 1e-05 | 
G37A A48U U54C | < 1e-05 |  | 
G35U C67A U69C | < 1e-05 |  | 
A33G G41C G63U | < 1e-05 |  | < 1e-05
C34G G35C G60C C68G | 6.81e-05 ± 3.1e-05 |  | 
A36C A39C A52U | < 1e-05 |  | 
G35A G37U C58A C70A | 0.000632 ± 0.00016 |  | 
A42G U47G C67U | 0.00108 ± 0.00019 | 0.0013 ± 0.00029 | 
G43C A52C C68A | < 1e-05 |  | 
G35A U55G G63A A64G | < 1e-05 |  | 
A36C A42U G44C A52U | < 1e-05 |  | 
C34U U47C | < 1e-05 | < 1e-05 | < 1e-05
A33U A42U G44C | < 1e-05 |  | 
G37A A64G C67G | < 1e-05 |  | 
G35C U49A G51U A53U | < 1e-05 | < 1e-05 | 
A36G A39U G43A U45G G59A | < 1e-05 |  | 
G43A G51U U65A G66U | < 1e-05 | < 1e-05 | 
A39C G51A A64G | < 1e-05 |  | 

Variant | self-cleavage kobs at 640 uM GlcN6P (glucosamine-6-phosphate [1]) [s⁻¹] | self-cleavage kobs at 2500 uM GlcN6P (glucosamine-6-phosphate [2]) [s⁻¹] | self-cleavage kobs at 10000 uM GlcN6P (glucosamine-6-phosphate [3]) [s⁻¹]
A33U G44C G51A U56A | < 1e-05 |  | 
G35A G41U U46A | < 1e-05 | < 1e-05 | 
G44A U46A G62A | < 1e-05 |  | 
G44A C50G | < 1e-05 | < 1e-05 | < 1e-05
A36U A53U U65A | < 1e-05 | < 1e-05 | 
A39G G40U C58G | < 1e-05 |  | 
G37A U46G C71U | 6.59e-05 ± 3.1e-05 |  | 
C34A G40C C61U | < 1e-05 |  | 
G38U C61A | < 1e-05 |  | 
C34U U49A U55G C61U C68G | 0.000585 ± 0.00016 |  | 
A33U G60A A64G | < 1e-05 | < 1e-05 | 
A33U C34U A36C U69G | 0.000124 ± 6e-05 |  | 
G41A G51A C68G | < 1e-05 |  | 
G44C A48U C50A | < 1e-05 |  | 
A39G C61G A64C | < 1e-05 | < 1e-05 | 
A42C U65G U69G | 0.000819 ± 0.00019 | 0.00302 ± 0.00061 | 0.00402 ± 0.001
C34U G51C U54A | < 1e-05 | < 1e-05 | 
G44A U55A G59U | < 1e-05 | < 1e-05 | 
G35U G40A A52U | < 1e-05 | < 1e-05 | 
A42C U56C G60U | < 1e-05 |  | 
A36G C58A G59U C70U | < 1e-05 | < 1e-05 | 
A42G A64G C70A | 4.59e-05 ± 2.2e-05 | 0.000247 ± 6.8e-05 | 

Variant | self-cleavage kobs at 640 uM GlcN6P (glucosamine-6-phosphate [1]) [s⁻¹] | self-cleavage kobs at 2500 uM GlcN6P (glucosamine-6-phosphate [2]) [s⁻¹] | self-cleavage kobs at 10000 uM GlcN6P (glucosamine-6-phosphate [3]) [s⁻¹]
G37U A39U G40U A48U C50G C67A | < 1e-05 | < 1e-05 | 
G44U A64U C68A | < 1e-05 |  | 
A39G C67G C68G | 9.65e-05 ± 2.5e-05 | 7.78e-05 ± 1.7e-05 | 
C34G U69G | 0.000107 ± 2e-05 | 8.27e-05 ± 2.5e-05 | 
G35A A53G G60C | < 1e-05 | < 1e-05 | 
A42U C67A U69G C71U | 4.51e-05 ± 2e-05 | 7.23e-05 ± 1.9e-05 | 
A33U U45C C50A | < 1e-05 | < 1e-05 | 
A36U U45A G63U | < 1e-05 | < 1e-05 | 
G35C G43U A52U C61U | < 1e-05 | < 1e-05 | 
G43A U46C U54A U56A U69C | < 1e-05 |  | 
A33U A48C G63A | < 1e-05 | < 1e-05 | 
A33G A39C G44A C71G | < 1e-05 | < 1e-05 | 
A42U G51A G63U | < 1e-05 |  | 
A42U C58A C61G | < 1e-05 | < 1e-05 | 
U46A A52C C61U | < 1e-05 | < 1e-05 | 
G38A A52G C68G | 7.2e-05 ± 2.5e-05 |  | 
G38C U55A A64C | < 1e-05 |  | 
A39G U46C C71U | 0.00179 ± 0.00048 |  | 
A39U U55C U65G | 0.000491 ± 0.00014 | 0.00164 ± 0.00045 | 
C34A G41A | < 1e-05 | < 1e-05 | 
A39G U45A U57C | 0.000107 ± 2.6e-05 | 0.000294 ± 7.7e-05 | 
A39U G41U A42U | 5.35e-05 ± 1.4e-05 | 0.000135 ± 2.2e-05 | 

Variant | self-cleavage kobs at 640 uM GlcN6P (glucosamine-6-phosphate [1]) [s⁻¹] | self-cleavage kobs at 2500 uM GlcN6P (glucosamine-6-phosphate [2]) [s⁻¹] | self-cleavage kobs at 10000 uM GlcN6P (glucosamine-6-phosphate [3]) [s⁻¹]
C34U A52G U54G | < 1e-05 | < 1e-05 | 
G38A G41U A42C U45C U54G C68G | < 1e-05 |  | 
G38C G43A A64G | < 1e-05 |  | 
G37C G40U U46G G63U | < 1e-05 |  | < 1e-05
G44U A48U A64G C67G | 0.000188 ± 7.9e-05 | 0.000485 ± 0.00017 | 
A39G A53C C67U | 0.00111 ± 0.00036 | 0.000701 ± 0.00027 | 
G40A A42G G51U U57A U69C | < 1e-05 |  | 
G38A U57A | < 1e-05 |  | < 1e-05
G35U C58U A64U C68A | < 1e-05 |  | 
A33U U45G U47A C67A C68G | < 1e-05 | < 1e-05 | 
G43A U55A C58U | < 1e-05 |  | 
A36G G41A C61G C71U | < 1e-05 | < 1e-05 | 
A39G U47G G59C | < 1e-05 |  | 
A39U U56A A72U | 0.000916 ± 0.00022 | 0.00356 ± 0.00049 | 
G44U C67U C71U | 0.00022 ± 6.3e-05 | 0.00069 ± 0.00025 | 
A33U U49A G51C | < 1e-05 |  | 
A33G A36U G38C | < 1e-05 |  | 
G40U U46G U47G U55A G63U | < 1e-05 | < 1e-05 | 
G41A G44U G66A | < 1e-05 | < 1e-05 | 
U46A C50G C58G | < 1e-05 |  | 
G37U G41C G60U | < 1e-05 |  | 
A36U A39U C71U | < 1e-05 |  | 

Variant | self-cleavage kobs at 640 uM GlcN6P (glucosamine-6-phosphate [1]) [s⁻¹] | self-cleavage kobs at 2500 uM GlcN6P (glucosamine-6-phosphate [2]) [s⁻¹] | self-cleavage kobs at 10000 uM GlcN6P (glucosamine-6-phosphate [3]) [s⁻¹]
U45G U46A U57G | < 1e-05 |  | 
U45G U46C C71U | 0.000925 ± 0.00024 | 0.00445 ± 0.001 | 
G40U G41U U49G C61G | < 1e-05 | < 1e-05 | 
A42C G44U | < 1e-05 |  | < 1e-05
G43A U46G C70G | < 1e-05 | < 1e-05 | 
G38A A39U U55G U69G | < 1e-05 |  | 
A39U U45G A52G C70A | < 1e-05 |  | 
G44C U47C A53G | < 1e-05 |  | 
G40A G41A A42U C68G | < 1e-05 | < 1e-05 | 
A39U A53C C71A | 8.85e-05 ± 1.7e-05 | 0.000186 ± 5.3e-05 | 
A36C A42U A52G C70U | < 1e-05 |  | 
A33U G41U A48C C68U | < 1e-05 |  | 
A36G U45A U49C | < 1e-05 | < 1e-05 | 
A33C U54G C71U | 7.35e-05 ± 2.2e-05 | 0.000178 ± 4.9e-05 | 
C34G U54A A64G | < 1e-05 | < 1e-05 | 
U45G G60U G62C C70U | < 1e-05 | < 1e-05 | 
C34U A39C C50G | < 1e-05 |  | 
G41A U55C | 1.88e-05 ± 8.5e-06 | 0.000105 ± 1.9e-05 | 
U45C U54G U56A | 0.000123 ± 2.3e-05 | 0.000428 ± 0.00012 | 0.000928 ± 0.00017
A36C G41A U45G A52U | < 1e-05 |  | 
G41U U45A G51C C58G | < 1e-05 | < 1e-05 | 
G40C C67G C70G | < 1e-05 |  | < 1e-05

Variant | self-cleavage kobs at 640 uM GlcN6P (glucosamine-6-phosphate [1]) [s⁻¹] | self-cleavage kobs at 2500 uM GlcN6P (glucosamine-6-phosphate [2]) [s⁻¹] | self-cleavage kobs at 10000 uM GlcN6P (glucosamine-6-phosphate [3]) [s⁻¹]
A42U G44C | < 1e-05 | < 1e-05 | < 1e-05
G41A U49C G60U | < 1e-05 |  | 
G44C U57G C58U | < 1e-05 |  | 
G35C G41A U49A C58G C71U | < 1e-05 |  | 
G41U A52C C71A | < 1e-05 | < 1e-05 | 
G37C U49C | < 1e-05 | < 1e-05 | < 1e-05
G40C G41U G43U | < 1e-05 | < 1e-05 | 
G41A U47A A52C | < 1e-05 |  | 
G35C G43U G60C | < 1e-05 |  | < 1e-05
A42C G43U C70U | < 1e-05 | < 1e-05 | 
G35U A39G G43A | < 1e-05 | < 1e-05 | 
A33U G41U G60C | < 1e-05 |  | 
G40U G41A A42U U54G G60U C71U | < 1e-05 | < 1e-05 | < 1e-05
A36U A42C U47A | < 1e-05 | < 1e-05 | 
G37A G40U U55G | 6.13e-05 ± 2.5e-05 | 6.99e-05 ± 1.6e-05 | 
G37A A48C U55G | < 1e-05 |  | 
C34U U55C C67U | < 1e-05 |  | 
C34A C61U U65C U69G | < 1e-05 |  | 
U45A G51C G60A C71U | < 1e-05 | < 1e-05 | 
G44U A48U C67U | 0.000119 ± 4.8e-05 | 0.000418 ± 0.00012 | 
A33C U47G A48C | < 1e-05 | < 1e-05 | < 1e-05

Reference: the supplement of paper PMC7125110
